The target of experiment [1] is M2345/WT IRSp53 heterodimer (human (from the printed UniProt entry)) (UniProt Q9UQB8). As to the kind of experiment: co-IP; homo- and heterodimers of wild-type and M2345 IRSp53 (FLAG and STREP tags, single plasmid with IRES) from HEK293T cells; endogenous 14-3-3 detected by blot, relative to WT-IRSp53-FLAG/WT-IRSp53-STREP.
For experiment [2], the target named is WT/M2345 IRSp53 heterodimer (human (from the printed UniProt entry)) (UniProt Q9UQB8). Described as above.
WT/M2345 IRSp53 heterodimer (human, sequence (Q9UQB8 other isoform, or with tags, fused parts or gaps T340A | T360A | S366A | 452SSST455 -> AAAA, chain 1 of 2): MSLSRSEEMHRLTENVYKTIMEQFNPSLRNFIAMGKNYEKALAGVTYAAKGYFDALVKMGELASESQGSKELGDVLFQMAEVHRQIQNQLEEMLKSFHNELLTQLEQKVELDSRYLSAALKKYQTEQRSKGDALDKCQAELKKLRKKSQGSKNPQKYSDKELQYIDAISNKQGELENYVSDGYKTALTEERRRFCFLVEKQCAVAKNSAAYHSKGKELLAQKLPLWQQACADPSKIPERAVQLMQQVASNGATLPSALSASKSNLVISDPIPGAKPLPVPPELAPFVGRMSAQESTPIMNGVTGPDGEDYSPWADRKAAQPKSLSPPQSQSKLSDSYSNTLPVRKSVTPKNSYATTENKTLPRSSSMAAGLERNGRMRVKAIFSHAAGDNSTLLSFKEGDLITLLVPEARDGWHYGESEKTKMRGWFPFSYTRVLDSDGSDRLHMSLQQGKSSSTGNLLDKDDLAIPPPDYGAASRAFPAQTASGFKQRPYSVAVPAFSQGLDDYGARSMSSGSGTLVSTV
WT/M2345 IRSp53 heterodimer (human, sequence (Q9UQB8 other isoform, or with tags, fused parts or gaps, chain 2 of 2): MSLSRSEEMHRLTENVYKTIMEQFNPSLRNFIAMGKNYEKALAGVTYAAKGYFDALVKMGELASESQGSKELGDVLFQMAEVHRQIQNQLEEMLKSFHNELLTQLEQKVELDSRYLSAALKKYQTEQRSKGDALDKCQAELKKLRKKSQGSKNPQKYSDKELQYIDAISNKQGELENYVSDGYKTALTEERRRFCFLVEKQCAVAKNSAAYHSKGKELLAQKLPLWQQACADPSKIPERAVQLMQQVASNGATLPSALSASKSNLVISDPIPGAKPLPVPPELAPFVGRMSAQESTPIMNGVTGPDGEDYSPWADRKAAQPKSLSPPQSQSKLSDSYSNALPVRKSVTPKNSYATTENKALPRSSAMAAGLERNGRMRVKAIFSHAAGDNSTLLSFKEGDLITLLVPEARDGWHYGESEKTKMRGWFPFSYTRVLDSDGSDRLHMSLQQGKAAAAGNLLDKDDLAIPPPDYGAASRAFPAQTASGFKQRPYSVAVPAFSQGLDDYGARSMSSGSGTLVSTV

endogenous 14-3-3 (all isoforms included), sequence (P27348 whole entry, canonical isoform): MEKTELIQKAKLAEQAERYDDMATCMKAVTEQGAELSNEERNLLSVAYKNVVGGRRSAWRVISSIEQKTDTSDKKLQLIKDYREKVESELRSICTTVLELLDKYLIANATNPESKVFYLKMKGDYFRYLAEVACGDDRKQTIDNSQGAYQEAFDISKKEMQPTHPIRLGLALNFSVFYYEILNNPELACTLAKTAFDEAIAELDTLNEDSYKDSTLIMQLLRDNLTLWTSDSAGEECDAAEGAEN

Regarding “endogenous 14-3-3 (all isoforms included) (from UniProt P27348 1-245) (natural protein)”, the percent of the amount that coimmunoprecipitates with WT/WT IRSp53 in experiment [1] and in experiment [2] was 50% throughout.
